Data on five molecules can be found in patent US7449563B2, “Methods and compositions for destabilizing microtubules” (Academia Sinica, priority 2003, dated 2008).

The target in assay [1] is T1, polymerized microtubules (bovine brain tubulin) (Bos taurus, UniProt P81947+Q6B856).
T1 construct: containing 125 μg bovine brain tubulin (Cytoskeleton, Denver, Colo.); purchased Cytoskeleton, Denver, Colo; host or cells: bovine brain (tissue-purified)
The experiment in a line: Microtubule depolymerization assay (centrosomes omitted). Type of assay: biochemical. The note with it: centrosomes absent; nocodazole 15 μM as positive control; data not shown. The method, then:
Microtubule Depolymerization Assay
In this assay, centrosomes are omitted from the above reaction mixtures to determine the effects of various truncated GST-CPAP proteins or synthetic peptides on microtubule polymerization in the absence of centrosomes. Polymerized microtubules were stained using FITC-conjugated anti-α-tubulin monoclonal antibodies, as above. Nocodazole (15 μM) was added to some reactions mixtures as a positive control for microtubule depolymerization.

The next assay addresses T2, Bovine brain α/β tubulin (Bos taurus, UniProt P81947+Q6B856).
T2 construct: Bovine brain α/β tubulin (15 μM; Cytoskeleton Inc., Denver, Colo.); purchased Cytoskeleton Inc., Denver, Colo; host or cells: bovine brain (tissue-purified)
Kind of assay: In vitro microtubule sedimentation assay. Conditions: 15 μM tubulin; 40 μM polypeptide. Type of assay: biochemical. The method, then:
In vitro Microtubule Sedimentation Assay
Bovine brain α/β tubulin (15 μM; Cytoskeleton Inc., Denver, Colo.) was pre-incubated with various amounts of truncated GST-CPAP proteins in a 50 μl reaction mixture comprising RG1 buffer (see Example 2) for 30 min at 37° C. Tubulin polymerization was initiated by adding 50 μl GMRG buffer (RG1 buffer supplemented with 12 mM MgCl2 and 50% glycerol), then incubating the reaction mixtures at 37° C. for 1.5 hr.
The reaction mixtures were then subjected to centrifugation at 300,000×g for 15 min at 37° C., in a TL-100 ultracentrifuge (Beckman Instruments, Fullerton, Calif.). Supernatants (S) and pellets (P) were analyzed by SDS-PAGE followed by staining with Coomassie blue.
Microtubule disassembly was confirmed using the microtubule sedimentation assay. Following centrifugation of the reaction mixtures, relatively soluble tubulin monomers and small multimers are found in the supernatant, while relatively insoluble polymerized tubulin is found in the pellet. To assay the ability of PN2-3-containing polypeptides to destabilize microtubules, reactions comprising 15 μM tubulin were incubated in the presence of increasing amounts of GST-PN2-3 (1.9, 3.8, 7.5, and 15 μM) or GST-PN2-2 (15, 30, or 40 μM), or in the absence of CPAP-derived polypeptides (control; FIG. 4A).

Assay [2] deals with T3, microtubule nucleation from purified centrosomes (bovine brain tubulin) (Bos taurus, UniProt P81947+Q6B856).
T3 construct: containing 125 μg bovine brain tubulin (Cytoskeleton, Denver, Colo.); purchased Cytoskeleton, Denver, Colo; host or cells: bovine brain (tissue-purified)
Kind of assay: In vitro centrosome-dependent microtubule nucleation assay. The note with it: for Inhibition of microtubule nucleation/assembly from purified centrosomes (in words): in vitro. In kind it is biochemical. The method, then: In vitro Centrosome-Dependant Microtubule Nucleation Assay
Isolation of centrosomes and microtubule nucleation tests were performed as described (Hung et al., 2000). To investigate the effect of different GST-truncated CPAP fusion proteins on microtubule nucleation, purified centrosomes (4 μl per reaction) were pre-incubated with the various truncated GST-CPAP fusion proteins or FPLC purified synthetic peptides for 10 min at 4° C. The reaction mixtures were then incubated in 65 μl RG1 buffer (80 mM PIPES, pH 6.8, 1 mM EGTA, 1 mM MgCl2, and 1 mM GTP) containing 125 μg bovine brain tubulin (Cytoskeleton, Denver, Colo.) for 4 min at 37° C.
Microtubules present in the reaction mixtures were fixed in 200 μl 1% glutaraldehyde in RG1 buffer, sedimented onto acid-treated coverslips, and subjected to immunofluoresence analysis using anti-α-tubulin monoclonal antibodies N356 (Amersham, Piscataway, N.J.) or FITC-conjugated anti-α-tubulin monoclonal antibodies (DM1A-FITC; Sigma, Saint Louis, Mo.). Truncated GST-CPAP proteins were detected using an anti-GST polyclonal antibody (Molecular Probes, Cincinnati, Ohio). The extent of microtubule assembly in each reaction was determined microscopically by comparing the extent of microtubule formation on each coverslip. Decreased microtubule formation in reactions comprising polypeptides derived from CPAP indicated the ability of such polypeptides to inhibit centrosome-dependent microtubule assembly.

Assay [3] deals with HeLa cells. Kind of assay: Flow cytometric cell cycle analysis of transfected HeLa cells. In kind it is cell-based, human. Conditions: transiently transfected HeLa cells. As to the method:
HeLa cells were maintained in DMEM supplemented with 10% fetal bovine serum. cDNA clones encoding different portions of CPAP were subcloned, in an appropriate reading frame, into the CMV promoter-driven EGFP-C1 expression vector (Clontech, Palo Alto, Calif.). Transient transfections were performed using Lipofectamine 2000 (Invitrogen, Carlsbad, Calif.) according to the manufacturer's instructions.
Transfected HeLa cells were harvested 48 hr following transfection. Both the adherent cells and non-adherent cells present in the culture supernatants were collected and subjected to centrifugation. The resulting cell pellets were resuspended in PBS then fixed in 1% formaldehyde at 4° C. for 30 min. Following fixation, the cells were collected by centrifugation, washed, and resuspended in 70% cold ethanol. The resuspended cells were either stored at −20° C. overnight or immediately used for FACS analysis.
FACS analysis was performed by collecting the fixed cells by centrifugation and resuspending the cells in DNA staining solution (100 μg/ml propidium iodide, 0.1% Triton X, and 100 μM EDTA in PBS) for 30 min at room temperature. Cell cycle analysis was performed on a FACS Calibur (Becton-Dickinson, Mountain View, Calif.) with the signal gated to measure only GFP fluorescence. Ten thousand events were acquired and the percentages of cells in G0/G1, S, and G2/M were determined using the ModfitLT software (version 2.0, Verity Software House, Inc., Topsham, Me.). The apparent accumulation of cells with two genome copies (i.e., twice the genetic material of G0/G1 cells) is indicative of cell cycle arrest after DNA synthesis but prior to mitosis.
A general note: Flow cytometry measures light scatter and fluorescence of single cells or particles in a stream.

The subject of assay [4] is HeLa cells. The experiment in a line: Cell-based assay for CPAP activity: microtubule reassembly in cold-treated transfected HeLa cells. Further details: species or system human. The note with it: transiently transfected HeLa cells.

“Also recorded” adds a separate entry of the source.

T1 sequence (P81947 whole entry): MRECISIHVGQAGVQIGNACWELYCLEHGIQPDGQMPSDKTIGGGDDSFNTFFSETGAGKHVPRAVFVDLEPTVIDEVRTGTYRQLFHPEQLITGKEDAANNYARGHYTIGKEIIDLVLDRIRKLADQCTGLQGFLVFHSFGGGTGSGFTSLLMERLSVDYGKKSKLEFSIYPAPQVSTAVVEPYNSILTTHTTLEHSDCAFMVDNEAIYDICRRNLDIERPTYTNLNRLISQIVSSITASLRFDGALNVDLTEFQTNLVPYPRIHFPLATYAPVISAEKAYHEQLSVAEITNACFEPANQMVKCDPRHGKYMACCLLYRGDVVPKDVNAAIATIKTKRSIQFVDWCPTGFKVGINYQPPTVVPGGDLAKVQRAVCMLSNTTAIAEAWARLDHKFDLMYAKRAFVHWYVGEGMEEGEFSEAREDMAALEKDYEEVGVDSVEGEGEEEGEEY
T1 sequence (Q6B856 whole entry): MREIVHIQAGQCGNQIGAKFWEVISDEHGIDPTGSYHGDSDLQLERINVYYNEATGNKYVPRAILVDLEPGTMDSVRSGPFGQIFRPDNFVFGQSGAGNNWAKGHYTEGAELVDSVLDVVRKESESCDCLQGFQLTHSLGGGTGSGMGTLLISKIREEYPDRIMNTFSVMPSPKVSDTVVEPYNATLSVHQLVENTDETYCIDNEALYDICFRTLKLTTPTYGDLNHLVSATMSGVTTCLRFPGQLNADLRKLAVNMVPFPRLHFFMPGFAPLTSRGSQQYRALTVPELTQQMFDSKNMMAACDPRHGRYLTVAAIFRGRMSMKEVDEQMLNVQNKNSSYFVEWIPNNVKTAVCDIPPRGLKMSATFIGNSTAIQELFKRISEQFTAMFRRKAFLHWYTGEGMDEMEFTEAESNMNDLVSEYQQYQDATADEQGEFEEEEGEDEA
T3 sequence (P81947 whole entry): as the sequence (P81947 whole entry) above
T3 sequence (Q6B856 whole entry): as the sequence (Q6B856 whole entry) above
T2 sequence (P81947 whole entry): as the sequence (P81947 whole entry) above
T2 sequence (Q6B856 whole entry): as the sequence (Q6B856 whole entry) above

B1: GST-PN2-2: GST fusion polypeptide with sub-region PN2-2 of PN2 (CPAP residues 191-310 per b157) (protein)
chain: LSLLPDDQSQKHRSPGNTTTGERATCCFPSYVYPDPTQEETYPSNILSHEQSNFCRTAHGDFVLTSKRASPNLFSEAQYQEAPVEKNNLKEENRNHPTGESILCWEKVTEQIQEANDKNL
modifications: left off: a dimerising Fc or GST
As to B1, in assay [1], the “Disassembly of polymerized microtubules in the absence of centrosomes (in words)” value (from here on “Disassembly of polymerized microtubules”) is reported as “no such effect”. The “Distribution of tubulin in the supernatant and pellet (in words)” value in the assay with Bovine brain α/β tubulin is on record as “little effect”.

B2: peptide M: synthetic peptide, amino acid residues 320-390 of CPAP (SEQ ID NO:1) (peptide, listed as Homo sapiens)
chain: ANIEERPIKAAIGERKQTFEDYLEEQIQLEEQELKQKQLKEAEGPLPIKAKPKQPFLKRGEGLARFTNAKS
Take B2: in assay [1], the “Disassembly of polymerized microtubules” value is reported as “disassembled”. In addition, the “Effect of synthetic peptide on centrosome-dependent microtubule nucleation (in words)” value in assay [2] (20 μM or 40 μM peptide) is reported as “inhibited centrosome-dependent microtubule nucleation in a dose dependent manner”.

B3: GST-CM: GST fusion polypeptide corresponding to amino acid residues 132-607 of CPAP (protein)
chain: EFKEGAYKDPLFKKLEQLKEVQQKKQEQLKRQQLEQLQRLMEEQEKLLTMVSGQCTLPGLSLLPDDQSQKHRSPGNTTTGERATCCFPSYVYPDPTQEETYPSNILSHEQSNFCRTAHGDFVLTSKRASPNLFSEAQYQEAPVEKNNLKEENRNHPTGESILCWEKVTEQIQEANDKNLQKHDDSSEVANIEERPIKAAIGERKQTFEDYLEEQIQLEEQELKQKQLKEAEGPLPIKAKPKQPFLKRGEGLARFTNAKSKFQKGKESKLVTNQSTSEDQPLFKMDRQQLQRKTALKNKELCADNPILKKDSKARTKSGSVTLSQKPKMLKCSNRKSLSPSGLKIQTGKKCDGQFRDQIKFENKVTSNNKENVTECPKPCDTGCTGWNKTQGKDRLPLSTGPASRLAAKSPIRETMKESESSLDVSLQKKLETWEREKEKENLELDEFLFLEQAADEISFSSNSSFVLKILERDQQI
modifications: left off: a dimerising Fc or GST
notes: GST fusion polypeptide corresponding to amino acid residues 132-607 of CPAP
For the molecule B3, the “Disassembly of polymerized microtubules” value in assay [1] was “disassembled”. In assay [2], the “Inhibition of microtubule nucleation/assembly from purified centrosomes (in words)” value is reported as “inhibited”.

B4: GST-PN2-3: GST fusion polypeptide corresponding to residues 311-422 of CPAP (protein)
chain: QKHDDSSEVANIEERPIKAAIGERKQTFEDYLEEQIQLEEQELKQKQLKEAEGPLPIKAKPKQPFLKRGEGLARFTNAKSKFQKGKESKLVTNQSTSEDQPLFKMDRQQLQR
modifications: left off: a dimerising Fc or GST
notes: GST fusion polypeptide corresponding to residues 311-422 of CPAP
B4: the “Disassembly of polymerized microtubules” value in assay [1] was “disassembled”. The “Inhibition of microtubule nucleation/assembly from purified centrosomes (in words)” value in assay [2] was “possessed the ability to inhibit microtubule assembly; also recorded: greatest level of inhibition”.

B5: GFP-PN2-3: GFP-tagged CPAP residues 311-422, expressed from a transfected vector (protein, UniProt Q9HC77 311-422, looked up, fragment)
chain: B4 chain
modifications: GFP tag
notes: GFP-tagged CPAP residues 311-422, expressed from a transfected vector
B5: in the assay with HeLa cells [3] (propidium iodide, GFP-gated), the “Cell cycle distribution by DNA content (in words)” value is reported as “progressive accumulation in G2/M”. In the assay on HeLa cells [3] (data not shown), the “Cell morphology (in words)” value was “change in morphology (to round cells)” and the “Cell proliferation (in words)” value is listed as “stopped proliferating”. In the assay on HeLa cells [4], the “Inhibition of microtubule reassembly in cold-treated mitotic cells (in words)” value is given as “significantly inhibited microtubule reassembly”.
